These results are taken from publication PMC4357707 (Nucleic Acids Research, 2015).

In one series the target is T1, HEN1 Δ38-45 (Arabidopsis thaliana, UniProt Q9C5Q8 1-37+=G+46-942, internal_change).
T1 sequence: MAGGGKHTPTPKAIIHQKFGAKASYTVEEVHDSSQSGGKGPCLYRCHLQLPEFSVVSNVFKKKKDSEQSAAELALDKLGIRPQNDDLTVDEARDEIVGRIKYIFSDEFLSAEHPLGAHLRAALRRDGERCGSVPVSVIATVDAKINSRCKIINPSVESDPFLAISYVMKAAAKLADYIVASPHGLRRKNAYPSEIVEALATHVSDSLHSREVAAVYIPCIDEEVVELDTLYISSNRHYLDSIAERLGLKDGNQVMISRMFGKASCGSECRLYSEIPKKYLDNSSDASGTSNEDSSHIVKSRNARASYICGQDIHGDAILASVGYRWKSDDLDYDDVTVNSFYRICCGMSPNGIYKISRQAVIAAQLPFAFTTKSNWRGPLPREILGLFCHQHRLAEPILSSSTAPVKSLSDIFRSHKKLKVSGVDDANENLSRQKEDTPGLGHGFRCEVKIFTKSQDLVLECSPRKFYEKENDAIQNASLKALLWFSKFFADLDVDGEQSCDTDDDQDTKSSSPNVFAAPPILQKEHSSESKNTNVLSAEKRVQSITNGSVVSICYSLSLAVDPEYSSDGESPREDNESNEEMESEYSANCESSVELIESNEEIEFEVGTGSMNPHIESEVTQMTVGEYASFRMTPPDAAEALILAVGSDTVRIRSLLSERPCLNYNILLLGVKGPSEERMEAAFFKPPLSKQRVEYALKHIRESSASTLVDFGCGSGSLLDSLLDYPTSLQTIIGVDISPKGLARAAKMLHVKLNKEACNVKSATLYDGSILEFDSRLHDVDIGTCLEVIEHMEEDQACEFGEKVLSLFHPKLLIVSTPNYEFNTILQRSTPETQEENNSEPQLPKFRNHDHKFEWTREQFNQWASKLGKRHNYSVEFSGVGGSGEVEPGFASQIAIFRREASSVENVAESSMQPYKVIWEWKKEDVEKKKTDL
The series is described as follows: EMSA. Background: A gel shift assay detects complexes by their altered migration in electrophoresis.

The next series concerns the target T2, HEN1-K22A (Arabidopsis thaliana, UniProt Q9C5Q8 1-942, K22A).
T2 sequence: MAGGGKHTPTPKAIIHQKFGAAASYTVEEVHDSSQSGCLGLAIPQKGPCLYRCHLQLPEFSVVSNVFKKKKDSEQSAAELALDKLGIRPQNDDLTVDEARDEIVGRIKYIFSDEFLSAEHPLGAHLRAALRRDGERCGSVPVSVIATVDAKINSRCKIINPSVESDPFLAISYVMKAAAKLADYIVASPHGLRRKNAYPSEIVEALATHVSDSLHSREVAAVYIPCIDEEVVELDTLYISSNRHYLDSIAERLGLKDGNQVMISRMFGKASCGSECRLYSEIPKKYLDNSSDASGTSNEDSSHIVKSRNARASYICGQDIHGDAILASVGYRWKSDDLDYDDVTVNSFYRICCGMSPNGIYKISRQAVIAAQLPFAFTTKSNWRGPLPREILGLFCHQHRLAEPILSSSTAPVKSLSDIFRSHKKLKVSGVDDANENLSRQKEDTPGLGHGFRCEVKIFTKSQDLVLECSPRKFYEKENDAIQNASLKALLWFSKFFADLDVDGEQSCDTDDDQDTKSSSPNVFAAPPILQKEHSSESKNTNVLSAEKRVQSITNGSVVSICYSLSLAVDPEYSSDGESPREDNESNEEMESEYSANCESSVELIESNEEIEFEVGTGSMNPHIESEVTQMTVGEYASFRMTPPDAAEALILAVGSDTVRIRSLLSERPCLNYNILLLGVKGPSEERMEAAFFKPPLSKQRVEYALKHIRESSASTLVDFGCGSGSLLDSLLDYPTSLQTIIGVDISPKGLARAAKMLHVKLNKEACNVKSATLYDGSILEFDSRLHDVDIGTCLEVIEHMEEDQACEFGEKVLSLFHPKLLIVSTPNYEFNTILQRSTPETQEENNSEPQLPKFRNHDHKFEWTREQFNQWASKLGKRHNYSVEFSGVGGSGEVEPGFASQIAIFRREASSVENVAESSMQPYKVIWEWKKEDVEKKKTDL
The experiment in a line: EMSA.

B1: miR173/miR173* (dsRNA)
RNA 1: UUCGCUUGCAGAGAGAAAUCAC
RNA 2: GAUUCUCUGUGUAAGCGAAAG
For orientation: Kd means a measure of binding affinity in units of concentration. The low end stands for tighter binding, the high end for weaker binding. In the series with HEN1 Δ38-45, B1 came in with a Kd of 0.32 ± 0.04 nM. Besides, the binding result in the series with HEN1-K22A is recorded as “binds”.
